Article PMC7181197
Where two headings read alike, the source gives them in different places.

Tests used:
GFP-G3BP1(ΔRG) [1] = assay: SEC
GFP-G3BP1(ΔRG) [2] = molecular target: GFP-G3BP1(ΔRG)

GFP-G3BP1(ΔRG) (domain or fragment)
stoichiometry N (GFP-G3BP1(ΔRG) [1]): 2
stoichiometry N (GFP-G3BP1(ΔRG) [2]): 2
